Laboratory results as given in patent US20240327497A1.

What was measured:
[1] = biological target: canine FcRn (FcRn large subunit with canine beta-2-microglobulin) (canine); test: SPR pH 5.9, IgG coupled to C1 chip, 1:1 kinetic fit
[2] = biological target: canine FcRn (FcRn large subunit with canine beta-2-microglobulin) (canine); test: SPR pH 6.0, IgG coupled to CM5, FcRn 50-800 nM
[3] = biological target: canine FcRn (FcRn large subunit with canine beta-2-microglobulin) (canine); test: SPR pH 7.4, FcRn coupled at high density, IgG 400 nM

Kd [1] | koff [1] | kon [1] | Kd [2] | koff [2] | kon [2] | Kd [3] | kon [3] | koff [3] | Binder
129 nM | 0.113 s⁻¹ | 878000 M⁻¹ s⁻¹ | 1130 nM | 0.134 s⁻¹ | 119000 M⁻¹ s⁻¹ | – | – | – | anti-NGF canine IgGB antibody, Fc variant A426Y (antibody, part only; not given: Anti-NGF variable domains, not shown: another chain or arm of the molecule; small tags and cut ends) Fc: APEMLGGPSVFIFPPKPKDTLLIARTPEVTCVVVDLDPEDPEVQISWFVDGKQMQTAKTQPREEQFNGTYRVVSVLPIGHQDWLKGKQFTCKVNNKALPSPIERTISKARGQAHQPSVYVLPPSREELSKNTVSLTCLIKDFFPPDIDVEWQSNGQQEPESKYRTTPPQLDEDGSYFLYSKLSVDKSRWQRGDTFICYVMHEALHNHYTQESLSHSPGK
57.7 nM | 0.0608 s⁻¹ | 1.06e+06 M⁻¹ s⁻¹ | 507 nM | 0.0777 s⁻¹ | 153000 M⁻¹ s⁻¹ | – | – | – | anti-NGF canine IgGB antibody, Fc variant A426Y + Y436H (antibody, part only; not given: anti-NGF variable domains and light chain, not shown: another chain or arm of the molecule; small tags and cut ends) Fc: APEMLGGPSVFIFPPKPKDTLLIARTPEVTCVVVDLDPEDPEVQISWFVDGKQMQTAKTQPREEQFNGTYRVVSVLPIGHQDWLKGKQFTCKVNNKALPSPIERTISKARGQAHQPSVYVLPPSREELSKNTVSLTCLIKDFFPPDIDVEWQSNGQQEPESKYRTTPPQLDEDGSYFLYSKLSVDKSRWQRGDTFICYVMHEALHNHHTQESLSHSPGK
– | – | – | 288 nM | 0.0591 s⁻¹ | 206000 M⁻¹ s⁻¹ | 129 nM | – | – | anti-NGF canine IgGB antibody, Fc variant A426Y + N434R (antibody, part only; not given: anti-NGF variable domains and light chain, not shown: another chain or arm of the molecule; small tags and cut ends) Fc: APEMLGGPSVFIFPPKPKDTLLIARTPEVTCVVVDLDPEDPEVQISWFVDGKQMQTAKTQPREEQFNGTYRVVSVLPIGHQDWLKGKQFTCKVNNKALPSPIERTISKARGQAHQPSVYVLPPSREELSKNTVSLTCLIKDFFPPDIDVEWQSNGQQEPESKYRTTPPQLDEDGSYFLYSKLSVDKSRWQRGDTFICYVMHEALHRHYTQESLSHSPGK
– | – | – | 197 nM | 0.048 s⁻¹ | 244000 M⁻¹ s⁻¹ | 104 nM | 4.95e+08 M⁻¹ s⁻¹ | – | anti-NGF canine IgGB antibody, Fc variant N434R + D312P (antibody, part only; not given: anti-NGF variable domains and light chain, not shown: another chain or arm of the molecule) Fc: APEMLGGPSVFIFPPKPKDTLLIARTPEVTCVVVDLDPEDPEVQISWFVDGKQMQTAKTQPREEQFNGTYRVVSVLPIGHQPWLKGKQFTCKVNNKALPSPIERTISKARGQAHQPSVYVLPPSREELSKNTVSLTCLIKDFFPPDIDVEWQSNGQQEPESKYRTTPPQLDEDGSYFLYSKLSVDKSRWQRGDTFICAVMHEALHRHYTQESLSHSPGK
7.26 nM | 0.0412 s⁻¹ | 5.67e+06 M⁻¹ s⁻¹ | – | – | – | – | – | – | anti-NGF canine IgGB antibody, Fc variant A426Y + T286L + Y436H (antibody, part only; not given: anti-NGF variable domains and light chain, not shown: another chain or arm of the molecule) Fc: APEMLGGPSVFIFPPKPKDTLLIARTPEVTCVVVDLDPEDPEVQISWFVDGKQMQLAKTQPREEQFNGTYRVVSVLPIGHQDWLKGKQFTCKVNNKALPSPIERTISKARGQAHQPSVYVLPPSREELSKNTVSLTCLIKDFFPPDIDVEWQSNGQQEPESKYRTTPPQLDEDGSYFLYSKLSVDKSRWQRGDTFICYVMHEALHNHHTQESLSHSPGK
– | – | – | 173 nM | 0.031 s⁻¹ | 180000 M⁻¹ s⁻¹ | 134 nM | – | – | anti-NGF canine IgGB antibody, Fc variant N434R + T286L (antibody, part only; not given: Anti-NGF variable domains, not shown: another chain or arm of the molecule) Fc: APEMLGGPSVFIFPPKPKDTLLIARTPEVTCVVVDLDPEDPEVQISWFVDGKQMQLAKTQPREEQFNGTYRVVSVLPIGHQDWLKGKQFTCKVNNKALPSPIERTISKARGQAHQPSVYVLPPSREELSKNTVSLTCLIKDFFPPDIDVEWQSNGQQEPESKYRTTPPQLDEDGSYFLYSKLSVDKSRWQRGDTFICAVMHEALHRHYTQESLSHSPGK
45.1 nM | 0.0497 s⁻¹ | 1.1e+06 M⁻¹ s⁻¹ | 421 nM | 0.0577 s⁻¹ | 137000 M⁻¹ s⁻¹ | 2900 nM | 58900 M⁻¹ s⁻¹ | 0.171 s⁻¹ | anti-NGF canine IgGB antibody, Fc variant A426Y + D312P (antibody, part only; not given: anti-NGF variable domains and light chain, not shown: another chain or arm of the molecule; small tags and cut ends) Fc: APEMLGGPSVFIFPPKPKDTLLIARTPEVTCVVVDLDPEDPEVQISWFVDGKQMQTAKTQPREEQFNGTYRVVSVLPIGHQPWLKGKQFTCKVNNKALPSPIERTISKARGQAHQPSVYVLPPSREELSKNTVSLTCLIKDFFPPDIDVEWQSNGQQEPESKYRTTPPQLDEDGSYFLYSKLSVDKSRWQRGDTFICYVMHEALHNHYTQESLSHSPGK
42.3 nM | 0.0436 s⁻¹ | 1.03e+06 M⁻¹ s⁻¹ | 327 nM | 0.0559 s⁻¹ | 171000 M⁻¹ s⁻¹ | 1120 nM | 82300 M⁻¹ s⁻¹ | 0.092 s⁻¹ | anti-NGF canine IgGB antibody, Fc variant A426Y + T286L (antibody, part only; not given: Anti-NGF variable domains, not shown: another chain or arm of the molecule; small tags and cut ends) Fc: APEMLGGPSVFIFPPKPKDTLLIARTPEVTCVVVDLDPEDPEVQISWFVDGKQMQLAKTQPREEQFNGTYRVVSVLPIGHQDWLKGKQFTCKVNNKALPSPIERTISKARGQAHQPSVYVLPPSREELSKNTVSLTCLIKDFFPPDIDVEWQSNGQQEPESKYRTTPPQLDEDGSYFLYSKLSVDKSRWQRGDTFICYVMHEALHNHYTQESLSHSPGK
– | – | – | 320 nM | 0.0838 s⁻¹ | 262000 M⁻¹ s⁻¹ | 382 nM | 666000 M⁻¹ s⁻¹ | 0.255 s⁻¹ | anti-NGF canine IgGB antibody, Fc variant N434R + Y436H (antibody, part only; not given: Anti-NGF variable domains, not shown: another chain or arm of the molecule) Fc: APEMLGGPSVFIFPPKPKDTLLIARTPEVTCVVVDLDPEDPEVQISWFVDGKQMQTAKTQPREEQFNGTYRVVSVLPIGHQDWLKGKQFTCKVNNKALPSPIERTISKARGQAHQPSVYVLPPSREELSKNTVSLTCLIKDFFPPDIDVEWQSNGQQEPESKYRTTPPQLDEDGSYFLYSKLSVDKSRWQRGDTFICAVMHEALHRHHTQESLSHSPGK
40.5 nM | 0.0532 s⁻¹ | 1.31e+06 M⁻¹ s⁻¹ | 376 nM | 0.0547 s⁻¹ | 145000 M⁻¹ s⁻¹ | 722 nM | 217000 M⁻¹ s⁻¹ | 0.156 s⁻¹ | anti-NGF canine IgGB antibody, Fc variant A426H + D312P (antibody, part only; not given: Anti-NGF variable domains, not shown: another chain or arm of the molecule; small tags and cut ends) Fc: APEMLGGPSVFIFPPKPKDTLLIARTPEVTCVVVDLDPEDPEVQISWFVDGKQMQTAKTQPREEQFNGTYRVVSVLPIGHQPWLKGKQFTCKVNNKALPSPIERTISKARGQAHQPSVYVLPPSREELSKNTVSLTCLIKDFFPPDIDVEWQSNGQQEPESKYRTTPPQLDEDGSYFLYSKLSVDKSRWQRGDTFICHVMHEALHNHYTQESLSHSPGK
21.3 nM | 0.0286 s⁻¹ | 1.34e+06 M⁻¹ s⁻¹ | 255 nM | 0.0409 s⁻¹ | 160000 M⁻¹ s⁻¹ | 940 nM | 136000 M⁻¹ s⁻¹ | 0.128 s⁻¹ | anti-NGF canine IgGB antibody, Fc variant A426H + T286Y (antibody, part only; not given: anti-NGF variable domains and light chain, not shown: another chain or arm of the molecule; small tags and cut ends) Fc: APEMLGGPSVFIFPPKPKDTLLIARTPEVTCVVVDLDPEDPEVQISWFVDGKQMQYAKTQPREEQFNGTYRVVSVLPIGHQDWLKGKQFTCKVNNKALPSPIERTISKARGQAHQPSVYVLPPSREELSKNTVSLTCLIKDFFPPDIDVEWQSNGQQEPESKYRTTPPQLDEDGSYFLYSKLSVDKSRWQRGDTFICHVMHEALHNHYTQESLSHSPGK
– | – | – | 93.7 nM | 0.0221 s⁻¹ | 236000 M⁻¹ s⁻¹ | 81.2 nM | 3.4e+08 M⁻¹ s⁻¹ | – | anti-NGF canine IgGB antibody, Fc variant N434R + T286Y (antibody, part only; not given: anti-NGF variable domains and light chain, not shown: another chain or arm of the molecule) Fc: APEMLGGPSVFIFPPKPKDTLLIARTPEVTCVVVDLDPEDPEVQISWFVDGKQMQYAKTQPREEQFNGTYRVVSVLPIGHQDWLKGKQFTCKVNNKALPSPIERTISKARGQAHQPSVYVLPPSREELSKNTVSLTCLIKDFFPPDIDVEWQSNGQQEPESKYRTTPPQLDEDGSYFLYSKLSVDKSRWQRGDTFICAVMHEALHRHYTQESLSHSPGK
35.8 nM | 0.0417 s⁻¹ | 1.16e+06 M⁻¹ s⁻¹ | 464 nM | 0.069 s⁻¹ | 149000 M⁻¹ s⁻¹ | 1600 nM | 81200 M⁻¹ s⁻¹ | 0.13 s⁻¹ | anti-NGF canine IgGB antibody, Fc variant A426H + T286L (antibody, part only; not given: Anti-NGF variable domains, not shown: another chain or arm of the molecule; small tags and cut ends) Fc: APEMLGGPSVFIFPPKPKDTLLIARTPEVTCVVVDLDPEDPEVQISWFVDGKQMQLAKTQPREEQFNGTYRVVSVLPIGHQDWLKGKQFTCKVNNKALPSPIERTISKARGQAHQPSVYVLPPSREELSKNTVSLTCLIKDFFPPDIDVEWQSNGQQEPESKYRTTPPQLDEDGSYFLYSKLSVDKSRWQRGDTFICHVMHEALHNHYTQESLSHSPGK
– | – | – | 497 nM | 0.107 s⁻¹ | 216000 M⁻¹ s⁻¹ | 234 nM | 8.25e+08 M⁻¹ s⁻¹ | – | anti-NGF canine IgGB antibody, Fc variant N434R (antibody, part only; not given: Anti-NGF variable domains, not shown: another chain or arm of the molecule) Fc: APEMLGGPSVFIFPPKPKDTLLIARTPEVTCVVVDLDPEDPEVQISWFVDGKQMQTAKTQPREEQFNGTYRVVSVLPIGHQDWLKGKQFTCKVNNKALPSPIERTISKARGQAHQPSVYVLPPSREELSKNTVSLTCLIKDFFPPDIDVEWQSNGQQEPESKYRTTPPQLDEDGSYFLYSKLSVDKSRWQRGDTFICAVMHEALHRHYTQESLSHSPGK
115 nM | 0.142 s⁻¹ | 1.24e+06 M⁻¹ s⁻¹ | 1040 nM | 0.124 s⁻¹ | 119000 M⁻¹ s⁻¹ | – | – | – | anti-NGF canine IgGB antibody, Fc variant A426H (antibody, part only; not given: Anti-NGF variable domains, not shown: another chain or arm of the molecule; small tags and cut ends) Fc: APEMLGGPSVFIFPPKPKDTLLIARTPEVTCVVVDLDPEDPEVQISWFVDGKQMQTAKTQPREEQFNGTYRVVSVLPIGHQDWLKGKQFTCKVNNKALPSPIERTISKARGQAHQPSVYVLPPSREELSKNTVSLTCLIKDFFPPDIDVEWQSNGQQEPESKYRTTPPQLDEDGSYFLYSKLSVDKSRWQRGDTFICHVMHEALHNHYTQESLSHSPGK
161 nM | 0.13 s⁻¹ | 808000 M⁻¹ s⁻¹ | 2270 nM | 0.202 s⁻¹ | 88700 M⁻¹ s⁻¹ | – | – | – | anti-NGF canine IgGB antibody, Fc variant A426H + Y436H (antibody, part only; not given: anti-NGF variable domains and light chain, not shown: another chain or arm of the molecule; small tags and cut ends) Fc: APEMLGGPSVFIFPPKPKDTLLIARTPEVTCVVVDLDPEDPEVQISWFVDGKQMQTAKTQPREEQFNGTYRVVSVLPIGHQDWLKGKQFTCKVNNKALPSPIERTISKARGQAHQPSVYVLPPSREELSKNTVSLTCLIKDFFPPDIDVEWQSNGQQEPESKYRTTPPQLDEDGSYFLYSKLSVDKSRWQRGDTFICHVMHEALHNHHTQESLSHSPGK
– | – | – | 70.8 nM | 0.0181 s⁻¹ | 255000 M⁻¹ s⁻¹ | 80.2 nM | 2.87e+06 M⁻¹ s⁻¹ | 0.23 s⁻¹ | anti-NGF canine IgGB antibody, Fc variant N434Y (antibody, part only; not given: Anti-NGF variable domains, not shown: another chain or arm of the molecule) Fc: APEMLGGPSVFIFPPKPKDTLLIARTPEVTCVVVDLDPEDPEVQISWFVDGKQMQTAKTQPREEQFNGTYRVVSVLPIGHQDWLKGKQFTCKVNNKALPSPIERTISKARGQAHQPSVYVLPPSREELSKNTVSLTCLIKDFFPPDIDVEWQSNGQQEPESKYRTTPPQLDEDGSYFLYSKLSVDKSRWQRGDTFICAVMHEALHYHYTQESLSHSPGK
